Tested on: thrombin-cleavable prodrug of human NK1
Sequence (chain, as listed by the source): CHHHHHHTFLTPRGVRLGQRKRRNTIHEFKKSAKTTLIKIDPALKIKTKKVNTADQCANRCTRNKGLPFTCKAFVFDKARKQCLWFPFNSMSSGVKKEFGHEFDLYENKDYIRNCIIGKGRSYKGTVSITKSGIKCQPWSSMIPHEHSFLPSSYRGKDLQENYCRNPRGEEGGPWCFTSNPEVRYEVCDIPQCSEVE

Substance: thrombin (Thrombin from human plasma; Sigma-Aldrich Co. LLC)
- cleavage of the protease-sensitive peptide and release of human NK1 (SDS electrophoresis, CBB staining): The treatment of each prodrug of human NK1 with the corresponding protease (ADAM17 or thrombin) was found to cleave the protease-sensitive peptide contained in the prodrug of human NK1 so that the active form, human NK1, was released.

Source: patent US20220220176
